# Data as given in PMC11552096 (Journal of molecular biology, 2020).
# Positions count from the first letter of the chain named. In names and notes the source's numbering stands.
# B1: apo-SUN2_(500-717) (domain or fragment, human, UniProt Q9UH99 500-717, looked up)
# chain: QGKSAREAAASLSLTLQKEGVIGVTEEQVHHIVKQALQRYSEDRIGLADYALESGGASVISTRCSETYETKTALLSLFGIPLWYHSQSPRVILQPDVHPGNCWAFQGPQGFAVVRLSARIRPTAVTLEHVPKALSPNSTISSAPKDFAIFGFDEDLQQEGTLLGKFTYDQDGEPIQTFHFQAPTMATYQVVELRILTNWGHPEYTCIYRFRVHGEPAH
# B2: hsSUN2_(522-717), wild type, as crystallised with KASH4 (domain or fragment, human, UniProt Q9UH99 522-717, looked up)
# chain: GVTEEQVHHIVKQALQRYSEDRIGLADYALESGGASVISTRCSETYETKTALLSLFGIPLWYHSQSPRVILQPDVHPGNCWAFQGPQGFAVVRLSARIRPTAVTLEHVPKALSPNSTISSAPKDFAIFGFDEDLQQEGTLLGKFTYDQDGEPIQTFHFQAPTMATYQVVELRILTNWGHPEYTCIYRFRVHGEPAH
# B3: hsSUN2_(522-717) with 4 surface point mutations Q534D, T683G, M684R, A685G (domain or fragment, human, UniProt Q9UH99 522-717, looked up)
# chain: B2 chain with Q13D, T162G, M163R, A164G
# Biological target: the molecule itself
# Test: crystal structure
row,Protein,stoichiometry N
1,B1,3
2,B2,3
3,B3,3
